{"source": "paper PMC5587908", "key": {"human plasminogen (Plg)": {"target": "human plasminogen (Plg)", "experiment": "ELISA", "set-up": "dose or concentration left out as unconfirmed", "settings": "FnBPB proteins immobilized on microtiter wells, read off a plot"}, "[1]": {"target": "full-length FnBPB on S. aureus FnBPB^(+) cells (S. aureus strain 8325-4)", "experiment": "single-molecule force spectroscopy (AFM); Fg tips against living FnBPB^(+) cells; PBS, contact time 100 ms, applied force 250 pN, speed 1,000 nm s^-1"}, "[2]": {"target": "full-length FnBPB on S. aureus FnBPB^(+) cells (S. aureus strain 8325-4)", "experiment": "single-cell force spectroscopy (AFM); as a5, in the presence of 0.1 mg ml^-1 Fg in the AFM chamber"}, "[3]": {"target": "full-length FnBPB on S. aureus FnBPB^(+) cells (S. aureus strain 8325-4)", "experiment": "single-molecule force spectroscopy (AFM); as a7, in the presence of 0.1 mg ml^-1 Fg in the AFM chamber"}, "[4]": {"target": "full-length FnBPB on S. aureus FnBPB^(+) cells (S. aureus strain 8325-4)", "experiment": "single-molecule force spectroscopy (AFM); Plg on the AFM tip (PEG-benzaldehyde linker) against living S. aureus cells trapped in porous membranes; PBS, 20°C, contact time 250 ms, applied force 250 pN, speed 1,000 nm s^-1; without Fg"}, "[5]": {"target": "full-length FnBPB on S. aureus FnBPB^(+) cells (S. aureus strain 8325-4)", "experiment": "single-cell force spectroscopy (AFM); single living S. aureus cell on a polydopamine-coated colloidal cantilever against Plg coupled to a gold substrate (NHS/EDC); PBS, 20°C, contact time 1 s, applied force 250 pN, speed 1,000 nm s^-1; without Fg"}, "[6]": {"target": "FnBPA (194-511), FnBPA_(N2N3) (S. aureus) (UniProt P14738)", "experiment": "ELISA; FnBPA_(N2N3) or FnBPB_(N2N3) coated on microtiter wells (200 ng/well, 0.1 M sodium carbonate pH 9.5), increasing concentrations of Plg for 1 h; bound Plg detected with rabbit anti-Plg and HRP goat anti-rabbit IgG; Kd from the Plg saturation kinetics"}, "[7]": {"target": "FnBPB (163-480), FnBPB_(N2N3) (S. aureus)", "experiment": "ELISA; FnBPA_(N2N3) or FnBPB_(N2N3) coated on microtiter wells (200 ng/well, 0.1 M sodium carbonate pH 9.5), increasing concentrations of Plg for 1 h; bound Plg detected with rabbit anti-Plg and HRP goat anti-rabbit IgG; Kd from the Plg saturation kinetics"}}, "note": "Where “and” joins values, the source holds several entries; their conditions need not be identical. Identical values can stand only once.", "data": [{"substance": "FnBPB (163-480), FnBPB_(N2N3) (from UniProt A0A0H2XKG3) N312A; F314A", "values": [{"measurement": "response", "setting": "human plasminogen (Plg); + Fg (black bar), saturating amounts of Fg, bound Plg detected with rabbit antibodies followed by HRP-con, parent: est. 1.5", "result": 1.5, "unit": "A490nm"}, {"measurement": "response", "setting": "human plasminogen (Plg); - Fg (white bar), bound Plg detected with rabbit antibodies followed by HRP-conjugated goat anti-rabbit IgG, parent: est. 1.6", "result": 1.5, "unit": "A490nm"}]}, {"substance": "human fibrinogen (Fg) (from UniProt P02671 36-866; P02675 45-491; P02679 27-453) (complex)", "values": [{"measurement": "adhesion force (single molecule, cell 1)", "setting": "[1]", "result": 1970, "unit": "pN"}, {"measurement": "adhesion force (single molecule, cell 2)", "setting": "[1]", "result": 1690, "unit": "pN"}, {"measurement": "adhesion force (single molecule, cell 3)", "setting": "[1]", "result": 1960, "unit": "pN"}]}, {"substance": "human plasminogen (Plg) (natural protein)", "values": [{"measurement": "mean adhesion force (single cell, 3 cells, with 0.1 mg/ml Fg)", "setting": "[2]", "result": 2100, "unit": "pN"}, {"measurement": "binding force (cell 1, with 0.1 mg/ml Fg)", "setting": "[3]", "result": 898, "unit": "pN"}, {"measurement": "binding force (cell 2, with 0.1 mg/ml Fg)", "setting": "[3]", "result": 619, "unit": "pN"}, {"measurement": "binding force (cell 3, with 0.1 mg/ml Fg)", "setting": "[3]", "result": 561, "unit": "pN"}, {"measurement": "binding probability (cell 1, with 0.1 mg/ml Fg)", "setting": "[3]", "result": 81, "unit": "%"}, {"measurement": "binding probability (cell 2, with 0.1 mg/ml Fg)", "setting": "[3]", "result": 79, "unit": "%"}, {"measurement": "binding probability (cell 3, with 0.1 mg/ml Fg)", "setting": "[3]", "result": 73, "unit": "%"}, {"measurement": "adhesion force (single molecule)", "setting": "[4]", "result": 188, "unit": "pN"}, {"measurement": "adhesion frequency", "setting": "[4]", "result": 40, "unit": "%"}, {"measurement": "binding force (cell 1)", "setting": "[4]", "result": 175, "unit": "pN"}, {"measurement": "binding force (cell 2)", "setting": "[4]", "result": 154, "unit": "pN"}, {"measurement": "binding force (cell 3)", "setting": "[4]", "result": 176, "unit": "pN"}, {"measurement": "binding probability (cell 1)", "setting": "[4]", "result": 67, "unit": "%"}, {"measurement": "binding probability (cell 2)", "setting": "[4]", "result": 24, "unit": "%"}, {"measurement": "binding probability (cell 3)", "setting": "[4]", "result": 42, "unit": "%"}, {"measurement": "adhesion force (single cell, cell 1)", "setting": "[5]", "result": 556, "unit": "pN"}, {"measurement": "adhesion force (single cell, cell 2)", "setting": "[5]", "result": 249, "unit": "pN"}, {"measurement": "adhesion force (single cell, cell 2, a few curves)", "setting": "[5]", "result": 1630, "unit": "pN"}, {"measurement": "adhesion force (single cell, cell 3)", "setting": "[5]", "result": 1600, "unit": "pN"}, {"measurement": "maximum adhesion force (single cell, cells 2 and 3)", "setting": "[5]", "result": "1500 pN and 2000 pN"}, {"measurement": "mean adhesion force (single cell, 3 cells)", "setting": "[5]", "result": 775, "unit": "pN"}, {"measurement": "Kd", "setting": "[6]", "result": 600, "unit": "nM"}, {"measurement": "Kd", "setting": "[7]", "result": 380, "unit": "nM"}]}]}
